Measured values taken from US20090291088A1 (Biogen, published 2009).

Columns and labels:
human INSR(28-956)-His10 [1] = target: T1, human INSR(28-956)-His10 (human, UniProt P06213 28-956); assay: ELISA on coated rh-INSR
T1 construct: range 28-956; Bought (R&D Systems 1544-IR); also called rh-INSR; soluble insulin receptor
Method: (§1) ELISA assays were performed to determine specific binding of the Fab fragment antibodies to soluble IGF-1R over the insulin receptor. […] Color development was stopped by addition of 4NH₂SO₄ and optical density is measured at 450 nm using a Molecular Devices plate reader and binding curves are generated.

[2] = target: T2, murine IGF-1R expressed on cells (mouse, UniProt Q60751 31-1373); assay: binding to CHO transfectants
T2 construct: whole, on cells; also called mouse IGF-1R

human IGF-1R(1-903)-Fc [3] = target: T3, human IGF-1R(1-903)-Fc (human, UniProt P08069 31-933); assay: ELISA on hIGF-1R-Fc, competitor biotinylated M13-C06
T3 construct: Made by Biogen Idec; Multimerises through IGF-1R and Fc; also called hIGF-1R-Fc; IGF-1R-Fc; not shown: C-terminal human IgG1-Fc tag

human IGF-1R(1-903)-Fc [4] = target: T3, human IGF-1R(1-903)-Fc; assay: competition ELISA: biotinylated hIGF-1R-Fc on streptavidin plate, 320 nM human IGF-2 His, detection with anti-His-HRP; blocked ligand human IGF-2 His
human IGF-1R(1-903)-Fc [5] = target: T3, human IGF-1R(1-903)-Fc; assay: ELISA, plate coated with soluble IGF-1 receptor Fc fusion protein, detection with anti-human kappa-HRP
Method: The plate was washed with phosphate-buffered saline (PBS, Irvine Scientific, Cat#9240), pH 7.4 plus 0.025% Tween 20 in the Skan Washer 300 (Skatron Instruments), blocked with buffer containing 1% nonfat milk, 0.05% Tween 20 in PBS, pH 7.4, and then incubated at room temperature for 1 hour. After incubation plate was washed with PBS plus 0.025% Tween 20 in the Skan Washer 300. […] Following a one hour incubation at room temperature, plate was washed with PBS plus 0.025% Tween 20 in the Skan Washer 300. […] Plate incubated for 1 hour at room temperature was washed with PBS plus 0.025% Tween 20 in the Skan Washer 300. […] The absorbance was measured at 450 nm, background 540 nm for TMB using the Molecular Devices plate reader. Data was analyzed using the SOFTMAX PRO software package version 4.3 LS (Molecular Devices Corp.).

[6] = target: T4, human IGF-1R(1-902)-His10 (human, UniProt P08069 31-932); assay: SPR, antibody over captured IGF-1R-10His
T4 construct: Cy5-labelled in tr-FRET; also called hIGF-1R-His10; IGF-1R-His
Method: All surface plasmon resonance (SPR) experiments were performed on a Biacore 3000 set to 25° C. using HBS-EP (Biacore, Cat. No. BR-1001-88) as the running buffer. A biotin-labeled anti-HisTag antibody (biotin-PENTA-His, Qiagen Cat. No. 34440) was immobilized to saturation on a Biacore SA chip (Cat. No. BR-1000-32) surface by injection at 500 nM in HBS-EP buffer. […] Subsequent to IGF-1R injections, flow rates were increased to 20 μL/min. A second, 130 μL injection of anti-IGF-1R antibody or Fab was performed to investigate interactions with the receptor. Each antibody and Fab was serially diluted from 64 nM to 0.5 nM to obtain concentration dependent kinetic binding curves. Each injection series was regenerated using 3×10 μL injections of 10 mM Acetate, pH 4.0, at 20 μL/min. Each curve was double referenced using (1) data obtained from a streptavidin surface devoid of IGF-1R and (2) data from a primary injection of IGF-1R followed by a secondary injection of HBS-EP buffer. The concentration series for each antibody and Fab was fit to the 1:1 binding model provided within the BiaEvaluation software of the manufacturer.
The rates at which the antibodies accumulate on the IGF-1R coated surface when applied at various concentrations as well as the rates at which they dissociated during applications of pure buffer were investigated by fitting the data to a 1:1 binding model. Approximate kinetic rate constants and equilibrium dissociation constant were calculated (Table 14).

human IGF-1R(1-903)-Fc [7] = target: T3, human IGF-1R(1-903)-Fc; assay: competition ELISA: biotinylated hIGF-1R-Fc on streptavidin plate, 320 nM human IGF-1 His, detection with anti-His-HRP; blocked ligand human IGF-1 His
Method: hIGF-1R-Fc was biotinylated using EZ-Link Sulfo-NHS-LC-Biotin according to the protocol provided by the manufacturer (Pierce Cat. No. 21335). Biotinylated human IGF-1R-Fc at 5 μg/ml was added to the wells of SigmaScreen streptavidin-coated 96-well plates (Sigma, Cat. No. M5432-5EA; Sigma-Aldrich Corp. (St. Louis, Mo., USA)) at 100 μL/well and incubated overnight at 2-8° C. The plates were then washed four times with 200 μL/well PBST. […] The dilutions were added to the plates in duplicate at 100 μL/well and the plates were incubated at RT for 1 hour. The plates were then washed four times with 200 μL/well PBST. An HRP-conjugated anti-Histag antibody (Penta-His HRP Conjugate, QIAGEN, Cat. No. 1014992) was diluted 1:1000 in PBST and added to plates at 100 μL/well, and the plates were incubated at RT for one hour. The plates were then washed four times with 200 μL/well PBST. SureBlue Reserve TMB Microwell Peroxidase Substrate (KPL, Cat. No. 53-00-01) was added to plates at 100 μL/well followed by 1% phosphoric acid at 100 μL/well once the desired reaction was observed. The absorbance of each well was determined at 450 nm, and the results were normalized and plotted against the log of antibody concentration.

[8] = target: T5, Rhesus IGF-1R expressed on CHO cells (rhesus monkey, UniProt I2CWY3 31-1367); assay: flow cytometry and confocal microscopy, CHO transfectants
T5 construct: whole, on cells; also called Rhesus IGF-1R/CHO

[9] = target: T6, human IGF-1R expressed on cells (human, UniProt P08069 31-1367); assay: cell-based or functional assay
[10] = target: T6, human IGF-1R expressed on cells; assay: flow cytometry, MCF-7 cells
Method: The ability of Fabs to bind to the wild type IGF-1R was determined by flowcytometry using MCF-7 tumor cell line.
MCF-7 cells (Human Breast Adenocarcinoma from NCI) were split 24 hours prior to the setup of the assay to obtain 70% confluent monolayer. Routinely, MCF-7 cell line was maintained within 20 passages. Cells were lifted with cell dissociation buffer (Gibco catalog #13151-014), counted, washed and adjusted to 1×10⁶ cells/ml and one ml of cells were then added to each tube (12×75 mm tube Falcon catalog# 352054). Cells were pelleted and supernatant removed by centrifugation at 1200 rpm for 5 min and 100 μl of diluted antibodies were then added to the cell pellet. Purified Fabs were tested at a starting concentration of either 210 or 60 μg/ml with 1:3 dilutions in FACS buffer, down to 0.001 μg/ml. FACS buffer used throughout the assay was PBS (without Ca++/Mg++) containing 1% BSA (Sigma catalog# A-7906; Sigma-Aldrich Corp. (St. Louis, Mo., USA)) and 0.1% Sodium Azide (Sigma catalog #S2002). […] Samples were allowed to incubate on ice for 1 hour and 15 minutes then were washed with 2 ml FACS buffer and centrifuged at 1200 rpm for 5 minutes at 4° C. The supernatant was aspirated and 100 μl of the secondary detection antibody was added to each corresponding tube in FACS buffer. Samples were then incubated for 30 minutes on ice, in the dark. Cells were washed as described above, then, re-suspended in […] FACS buffer per tube/sample.
Cells were stained for live cell determination with Propidium Iodide staining solution (PI for dead cell exclusion; BD Pharmingen catalog# 51-66211E or 556463; use at 1:500 final in FACS buffer). Samples were run on the FACSCalibur instrument (Becton Dickinson) with 10,000 live events collected per sample.

human INSR(28-956)-His10 [11] = target: T1, human INSR(28-956)-His10; assay: ELISA, plate coated with rh-INSR
Method: as §1

[12] = target: T4, human IGF-1R(1-902)-His10; assay: ELISA, plate coated with rh-IGF-1R, bound Fab detected with anti-human kappa-HRP
Method: as §1

T2 sequence (Q60751 31-1373): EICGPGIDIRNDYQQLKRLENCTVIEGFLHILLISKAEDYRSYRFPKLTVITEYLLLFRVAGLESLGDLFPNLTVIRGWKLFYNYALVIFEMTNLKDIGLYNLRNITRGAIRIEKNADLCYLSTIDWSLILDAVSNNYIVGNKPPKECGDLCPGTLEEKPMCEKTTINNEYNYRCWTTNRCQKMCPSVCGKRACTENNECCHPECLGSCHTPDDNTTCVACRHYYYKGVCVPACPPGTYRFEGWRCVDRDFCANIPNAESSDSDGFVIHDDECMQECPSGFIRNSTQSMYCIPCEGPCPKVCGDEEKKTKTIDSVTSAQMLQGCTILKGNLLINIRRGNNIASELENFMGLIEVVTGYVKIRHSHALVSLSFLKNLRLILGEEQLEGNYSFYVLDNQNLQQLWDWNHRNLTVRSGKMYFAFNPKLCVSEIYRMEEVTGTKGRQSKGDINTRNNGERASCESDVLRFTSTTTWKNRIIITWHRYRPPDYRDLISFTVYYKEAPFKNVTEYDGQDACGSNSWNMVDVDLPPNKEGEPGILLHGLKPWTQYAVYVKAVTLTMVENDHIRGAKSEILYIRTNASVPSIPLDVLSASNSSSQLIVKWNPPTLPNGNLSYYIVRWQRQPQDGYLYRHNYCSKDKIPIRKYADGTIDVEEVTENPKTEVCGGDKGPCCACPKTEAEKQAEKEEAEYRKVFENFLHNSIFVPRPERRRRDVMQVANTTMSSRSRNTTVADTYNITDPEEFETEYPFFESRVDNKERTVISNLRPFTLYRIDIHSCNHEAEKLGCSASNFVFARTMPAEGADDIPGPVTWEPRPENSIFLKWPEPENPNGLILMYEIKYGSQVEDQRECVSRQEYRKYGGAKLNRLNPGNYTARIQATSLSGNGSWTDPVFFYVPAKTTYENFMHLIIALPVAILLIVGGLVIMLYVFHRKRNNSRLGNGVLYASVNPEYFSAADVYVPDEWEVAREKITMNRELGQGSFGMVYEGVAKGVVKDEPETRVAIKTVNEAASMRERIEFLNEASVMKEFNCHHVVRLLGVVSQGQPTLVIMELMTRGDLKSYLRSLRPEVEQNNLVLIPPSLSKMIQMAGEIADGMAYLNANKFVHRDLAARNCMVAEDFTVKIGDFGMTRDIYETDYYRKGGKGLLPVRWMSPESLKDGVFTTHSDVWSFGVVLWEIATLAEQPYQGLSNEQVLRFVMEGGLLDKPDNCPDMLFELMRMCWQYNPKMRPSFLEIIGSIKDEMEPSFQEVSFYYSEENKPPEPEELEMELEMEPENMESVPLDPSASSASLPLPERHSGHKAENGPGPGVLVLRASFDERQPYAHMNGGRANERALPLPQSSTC
T5 sequence (I2CWY3 entry or part of it): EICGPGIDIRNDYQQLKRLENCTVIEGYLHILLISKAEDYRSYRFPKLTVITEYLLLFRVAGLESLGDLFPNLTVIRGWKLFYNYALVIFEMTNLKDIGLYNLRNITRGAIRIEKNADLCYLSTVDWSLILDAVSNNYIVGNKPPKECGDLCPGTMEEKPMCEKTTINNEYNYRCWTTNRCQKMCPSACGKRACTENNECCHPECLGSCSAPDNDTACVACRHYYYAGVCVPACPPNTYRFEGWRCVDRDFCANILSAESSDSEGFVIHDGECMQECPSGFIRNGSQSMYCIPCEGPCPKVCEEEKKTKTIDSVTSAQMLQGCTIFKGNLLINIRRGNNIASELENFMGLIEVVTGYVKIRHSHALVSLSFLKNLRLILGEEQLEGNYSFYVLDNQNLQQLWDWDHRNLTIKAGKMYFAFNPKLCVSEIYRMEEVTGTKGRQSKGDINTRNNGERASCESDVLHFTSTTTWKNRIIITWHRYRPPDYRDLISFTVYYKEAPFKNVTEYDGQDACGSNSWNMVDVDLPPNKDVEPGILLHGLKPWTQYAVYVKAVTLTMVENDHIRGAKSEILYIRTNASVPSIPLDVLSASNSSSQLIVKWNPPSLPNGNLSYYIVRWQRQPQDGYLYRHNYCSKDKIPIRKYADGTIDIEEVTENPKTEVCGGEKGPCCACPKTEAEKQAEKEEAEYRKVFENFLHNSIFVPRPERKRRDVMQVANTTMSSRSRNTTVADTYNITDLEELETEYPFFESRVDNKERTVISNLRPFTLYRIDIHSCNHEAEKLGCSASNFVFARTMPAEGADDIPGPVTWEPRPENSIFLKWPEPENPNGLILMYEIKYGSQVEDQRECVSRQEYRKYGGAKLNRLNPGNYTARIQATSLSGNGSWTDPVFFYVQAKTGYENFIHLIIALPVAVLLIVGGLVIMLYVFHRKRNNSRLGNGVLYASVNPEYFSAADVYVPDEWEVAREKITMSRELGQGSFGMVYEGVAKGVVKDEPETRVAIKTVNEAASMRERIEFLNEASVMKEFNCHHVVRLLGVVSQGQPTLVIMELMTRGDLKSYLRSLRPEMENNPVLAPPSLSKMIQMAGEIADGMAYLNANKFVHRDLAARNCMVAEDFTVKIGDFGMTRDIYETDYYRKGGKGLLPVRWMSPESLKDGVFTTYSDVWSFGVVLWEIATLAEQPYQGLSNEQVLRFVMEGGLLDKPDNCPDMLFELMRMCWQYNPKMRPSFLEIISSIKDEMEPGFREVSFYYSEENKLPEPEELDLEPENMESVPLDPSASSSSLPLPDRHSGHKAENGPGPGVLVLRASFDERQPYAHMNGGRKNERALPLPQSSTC

B1: M12-E01 Fab (Fab, V domains shown)
VH: EVQLLESGGGLVQPGGSLRLSCAASGFTFSPYSMLWVRQAPGKGLEWVSSIGSSGGSTRYADSVKGRFTISRDNSKNTLYLQMNSLRAEDTAMYYCARVRGILHYDILIGRNLYYYYMDVWGKGTTVTVSS
VL: QYELTQPPSVSEAPRQRVTISCSGSSSNIGNNAINWYQQLPGKPPKLLIYYDDLLPSGVSDRFSGSKSGTSGSLAISGLQSEDEADYYCAAWDDNLNGVIFGGGTKLTVL
Human INSR(28-956)-His10 [1]
  binding result: no binding (tested: 2 µM-0.2 nM)

B2: M14-C03.G4.P.agly (antibody, human IgG4 S228P, kappa, V domains shown)
VH: EVQLLESGGGLVQPGGSLRLSCAASGFTFSKYMMSWVRQAPGKGLEWVSYISPSGGLTWYADSVKGRFTISRDNSKNTLYLQMNSLRAEDTAVYYCARDGARGYGMDVWGQGTTVTVSS
VL: DIQMTQSPATLSLSPGERATLSCRASQSVSSYLAWYQQKPGQAPRLLIYDASNRATGIPARFSGSGSGTDFTLTISSLEPEDFAVYYCQQRSNWPPEVTFGPGTKVDIKR
notes: Full-length human aglycosylated IgG4.P, kappa; Places that say only 'M14-C03 antibody' were assigned to this version; also called M14-C03_Ab
[2]
  binding result: binds
Human IGF-1R(1-903)-Fc [3]
  percent competition (relative to self-competition): 90 to 100%
Human IGF-1R(1-903)-Fc [4]
  IC50 (read off the curve): ~1 nM
Human IGF-1R(1-903)-Fc [5]
  EC50 (read off the curve): ~0.07 nM
[6]
  Kd: 0.36 nM
  koff: 0.0002 s⁻¹
  kon: 570000 M⁻¹ s⁻¹
Human IGF-1R(1-903)-Fc [7]
  IC50 (read off the curve): ~5 nM
[8]
  binding result: binds
[9]
  inhibition of IGF-1 and IGF-2 mediated IGF-1R receptor phosphorylation (EC50): < 1 nM

B3: M14-B01 Fab (Fab, V domains shown)
VH: EVQLLESGGGLVQPGGSLRLSCAASGFTFSNYHMAWVRQAPGKGLEWVSVISPTGGRTTYADSVKGRFTISRDNSKNTLYLQMNSLRAEDTATYYCARAGYSYGYGYFDYWGQGTLVTVSS
VL: DIQMTQFPATLSVSPGERATLSCRASQSVMRNLAWYQQKPGQPPRLLIYGASKRATGIPARFSGSGSGTAFTLTISNLEPEDFAVYYCHQRSTWPLGTFGPGTKLEAK
notes: Human phage Fab, kappa
[10]
  EC50: 29.4 nM
Human INSR(28-956)-His10 [11]
  binding result: no binding (tested: about 20000 nM)
[12]
  EC50 (read off the curve): ~6 nM
